These substances were tested against acetylcholine receptor (Homo sapiens, UniProt P02708) (assay: SPR binding affinity (RU) of optimized 5mer/6mer/7mer peptides, Examples 6-7). Details: SPR, Resonance Units; peptides tested at 10 μM; 6mer-2 Bottom sequence.
Method in brief: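 Single-concentration screen: 10 μM peptide, SPR detection, binding expressed as RU.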

Sequence of acetylcholine receptor (P02708 21-457): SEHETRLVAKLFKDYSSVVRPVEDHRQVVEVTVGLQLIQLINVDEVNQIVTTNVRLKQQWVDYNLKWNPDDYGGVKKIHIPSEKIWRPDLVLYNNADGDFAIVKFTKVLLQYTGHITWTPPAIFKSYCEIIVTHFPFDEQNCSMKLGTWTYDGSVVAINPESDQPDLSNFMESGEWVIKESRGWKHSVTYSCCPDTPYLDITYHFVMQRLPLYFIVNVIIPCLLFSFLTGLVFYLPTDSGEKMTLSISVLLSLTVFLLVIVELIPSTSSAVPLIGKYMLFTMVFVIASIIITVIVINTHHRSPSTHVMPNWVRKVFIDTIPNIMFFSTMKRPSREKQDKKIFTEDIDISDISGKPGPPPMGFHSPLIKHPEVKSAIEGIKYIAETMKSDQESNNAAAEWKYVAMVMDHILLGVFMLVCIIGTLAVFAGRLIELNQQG

Row | Substance | Binding affinity [Ru]
1 | 6mer-2-601 (KNSHKK) | 25
2 | 6mer-2-602 (RNTPKR) | 24
3 | 6mer-2-603 (KFHARR) | 32
4 | 6mer-2-604 (KEPIRK) | 16
5 | 6mer-2-605 (KNCGKK) | 17
6 | 6mer-2-606 (RKPFRR) | 15
7 | 6mer-2-607 (KKWVKR) | 31
8 | 6mer-2-608 (RCNHKK) | 32
9 | 6mer-2-609 (RDSDRR) | 24
10 | 6mer-2-610 (RKNPKR) | 32
11 | 6mer-2-611 (RIKMRR) | 22
12 | 6mer-2-612 (RDCVRK) | 17
13 | 6mer-2-613 (KAANRR) | 18
14 | 6mer-2-614 (KAWIRR) | 19
15 | 6mer-2-615 (KDNGRK) | 27
16 | 6mer-2-616 (REPHRK) | 26
17 | 6mer-2-617 (RCNGRR) | 32
18 | 6mer-2-618 (KHHKKR) | 12
19 | 6mer-2-619 (RPPDRR) | 26
20 | 6mer-2-620 (RHTGRR) | 33
21 | 6mer-2-621 (RHEPKR) | 32
22 | 6mer-2-622 (RYTNKR) | 13
23 | 6mer-2-623 (KHAHRR) | 13
24 | 6mer-2-624 (KPPIRK) | 33
25 | 6mer-2-625 (RFPDKK) | 33

Row | Substance | Binding affinity [Ru]
26 | 6mer-2-626 (KNSEKK) | 33
27 | 6mer-2-627 (KKTARR) | 33
28 | 6mer-2-628 (RKSFKR) | 30
29 | 6mer-2-629 (RFCWKK) | 32
30 | 6mer-2-630 (RYAFRR) | 27
31 | 6mer-2-631 (KYCMKR) | 16
32 | 6mer-2-632 (KYDIKR) | 12
33 | 6mer-2-633 (KYAVKR) | 17
34 | 6mer-2-634 (RYEHRK) | 33
35 | 6mer-2-635 (KECVRR) | 11
36 | 6mer-2-636 (KMAPKR) | 21
37 | 6mer-2-637 (RPPVRK) | 32
38 | 6mer-2-638 (RCWAKR) | 30
39 | 6mer-2-639 (KHTVKK) | 23
40 | 6mer-2-640 (KFKKKR) | 21
41 | 6mer-2-641 (REEFRR) | 12
42 | 6mer-2-642 (KTENKK) | 16
43 | 6mer-2-643 (KANPKK) | 12
44 | 6mer-2-644 (REPNRR) | 12
45 | 6mer-2-645 (RIKVKK) | 15
46 | 6mer-2-646 (RAAPRR) | 32
47 | 6mer-2-647 (KTEPKR) | 19
48 | 6mer-2-648 (RYPDRK) | 23
49 | 6mer-2-649 (KFDVRK) | 31
50 | 6mer-2-650 (RFKARK) | 18

Row | Substance | Binding affinity [Ru]
51 | 6mer-2-651 (KNADRR) | 21
52 | 6mer-2-652 (RTTMRK) | 16
53 | 6mer-2-653 (KIEMKR) | 20
54 | 6mer-2-654 (RMPEKR) | 20
55 | 6mer-2-655 (KIWFRR) | 31
56 | 6mer-2-656 (KADPRR) | 11
57 | 6mer-2-657 (RKHERK) | 32
58 | 6mer-2-658 (RYWVKK) | 23
59 | 6mer-2-659 (KIPNKR) | 22
60 | 6mer-2-660 (RHKDRK) | 16
61 | 6mer-2-661 (RMKAKK) | 29
62 | 6mer-2-662 (KAHPKK) | 11
63 | 6mer-2-663 (KFAGRR) | 24
64 | 6mer-2-664 (KCCWKK) | 11
65 | 6mer-2-665 (KCAERR) | 18
66 | 6mer-2-666 (KPMDRR) | 25
67 | 6mer-2-667 (KHDMRR) | 25
68 | 6mer-2-668 (RFCNKK) | 13
69 | 6mer-2-669 (KNMWRK) | 15
70 | 6mer-2-670 (RKWHKR) | 33
71 | 6mer-2-671 (RDWIRR) | 27
72 | 6mer-2-672 (KIDDRK) | 20
73 | 6mer-2-673 (RFCGRK) | 23
74 | 6mer-2-674 (KKWERK) | 26
75 | 6mer-2-675 (RMKWRK) | 14

Row | Substance | Binding affinity [Ru]
76 | 6mer-2-676 (KCTAKK) | 14
77 | 6mer-2-677 (RENWKK) | 28
78 | 6mer-2-678 (KEWWRR) | 32
79 | 6mer-2-679 (RYSAKK) | 20
80 | 6mer-2-680 (KNHGKR) | 15
81 | 6mer-2-681 (RDTWRR) | 33
82 | 6mer-2-682 (RNMERR) | 33
83 | 6mer-2-683 (KTEIRK) | 33
84 | 6mer-2-684 (RYTMKK) | 14
85 | 6mer-2-685 (KFHNRK) | 15
86 | 6mer-2-686 (KTWEKK) | 21
87 | 6mer-2-687 (KADGRK) | 16
88 | 6mer-2-688 (RPMFRK) | 13
89 | 6mer-2-689 (RDKERR) | 24
90 | 6mer-2-690 (KFTMRK) | 13
91 | 6mer-2-691 (RHKMRK) | 15
92 | 6mer-2-692 (KYTNRR) | 29
93 | 6mer-2-693 (KNTIRR) | 16
94 | 6mer-2-694 (KDSIRK) | 22
95 | 6mer-2-695 (KCWWRR) | 28
96 | 6mer-2-696 (KFTKKK) | 20
97 | 6mer-2-697 (KCAVKK) | 19
98 | 6mer-2-698 (KCEDKK) | 27
99 | 6mer-2-699 (KNAGKR) | 23
100 | 6mer-2-700 (RPWHKK) | 15

Row | Substance | Binding affinity [Ru]
101 | 6mer-2-701 (KTWAKR) | 23
102 | 6mer-2-702 (KEMIKR) | 18
103 | 6mer-2-703 (RTMHKR) | 14
104 | 6mer-2-704 (KDWHRK) | 20
105 | 6mer-2-705 (RENFKK) | 11
106 | 6mer-2-706 (KFTDRK) | 23
107 | 6mer-2-707 (RTWKRK) | 21
108 | 6mer-2-708 (RAWVKK) | 29
109 | 6mer-2-709 (RIWPKR) | 31
110 | 6mer-2-710 (RNKKKK) | 14
111 | 6mer-2-711 (KECGRR) | 29
112 | 6mer-2-712 (KIPHRR) | 29
113 | 6mer-2-713 (RASWRR) | 24
114 | 6mer-2-714 (KIDVRK) | 30
115 | 6mer-2-715 (RATHRK) | 32
116 | 6mer-2-716 (RTWKKR) | 18
117 | 6mer-2-717 (KCPGKR) | 15
118 | 6mer-2-718 (KYTFKR) | 12
119 | 6mer-2-719 (KIKPRR) | 29
120 | 6mer-2-720 (RATNRK) | 29
121 | 6mer-2-721 (RHSKKK) | 26
122 | 6mer-2-722 (RNEHRR) | 21
123 | 6mer-2-723 (KEDMKR) | 23
124 | 6mer-2-724 (KYTMKK) | 24
125 | 6mer-2-725 (KAHMKK) | 25

Row | Substance | Binding affinity [Ru]
126 | 6mer-2-726 (KHHKKK) | 25
127 | 6mer-2-727 (RDMIKR) | 11
128 | 6mer-2-728 (RMTMKK) | 23
129 | 6mer-2-729 (RCPDKR) | 30
130 | 6mer-2-730 (RNTHKR) | 26
131 | 6mer-2-731 (KASWKK) | 19
132 | 6mer-2-732 (KPTWRK) | 24
133 | 6mer-2-733 (RTPARK) | 29
134 | 6mer-2-734 (KHCHRR) | 17
135 | 6mer-2-735 (KMNAKK) | 21
136 | 6mer-2-736 (KNNHKK) | 29
137 | 6mer-2-737 (KDSVRR) | 19
138 | 6mer-2-738 (KPWFKK) | 29
139 | 6mer-2-739 (RIHAKK) | 17
140 | 6mer-2-740 (KIDIRR) | 12
141 | 6mer-2-741 (KNEKKR) | 30
142 | 6mer-2-742 (KNNWRR) | 32
143 | 6mer-2-743 (KHTMKR) | 18
144 | 6mer-2-744 (KDHPRK) | 19
145 | 6mer-2-745 (KNTERR) | 17
146 | 6mer-2-746 (RIKVRK) | 26
147 | 6mer-2-747 (RANFRR) | 29
148 | 6mer-2-748 (RFDKKR) | 28
149 | 6mer-2-749 (KMWKRK) | 20
150 | 6mer-2-750 (RKCVKR) | 29

Same assay, conditions: SPR, Resonance Units; peptides tested at 10 μM; 6mer-2 Top sequence

Row | Substance | Binding affinity [Ru]
151 | 6mer-2-590 (KGRLRK) | 148
152 | 6mer-2-591 (KGILRR) | 146
153 | 6mer-2-592 (RWVLRK) | 122
154 | 6mer-2-593 (RSQLKR) | 139
155 | 6mer-2-594 (RWYRRR) | 139
156 | 6mer-2-595 (KLRCKK) | 154
157 | 6mer-2-596 (KGIQKK) | 153
158 | 6mer-2-597 (KQFLRK) | 154
159 | 6mer-2-598 (KVFRRR) | 146
160 | 6mer-2-599 (RRRYRK) | 121
161 | 6mer-2-600 (RSQLKK) | 139
